Experimental findings from US7754689B2, “Finger-1 peptide analogs of the TGF-β superfamily” (Wyeth LLC, priority 2006, dated 2010) are described below.

For assay [1], the target named is T1, BMP-12 (Homo sapiens, UniProt Q7Z4P5).
T1 sequence (Q7Z4P5 322-450): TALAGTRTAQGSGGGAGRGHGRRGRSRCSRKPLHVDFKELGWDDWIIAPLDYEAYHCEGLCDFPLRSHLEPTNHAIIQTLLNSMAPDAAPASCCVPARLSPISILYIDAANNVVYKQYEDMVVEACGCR
The assay is described as follows: Filter-plate binding and elution of BMP-12 on peptide-coupled affinity resins. The method, then: The coupled resins, plus an unconjugated resin for use as a control, were suspended in 16% ethanol, 150 mM NaCl, and 20 mM Tris buffer at pH 7.5 at a 25% v/v ratio (e.g., […]). A Tecan liquid-handling robot was employed to aliquot 200 μL of each slurry into one of eight rows of a 96 well polystyrene filter plate (0.45 μm hydrophilic filters, Whatman catalog number 770-1806). Spinning at 1200 g for 3 min removed the liquid phase, leaving 50 μL of wet resin on the filters. The resins were then equilibrated with the loading buffers listed in Table 6 (K is a coefficient characterizing the strength of protein binding to a particular resin in a particular buffer). […] The resins were loaded by transferring 150 μL from the load plate to the filter plate and then incubating 20 min on a shaking platform to facilitate binding. The filter plate was spun down and the filtrate collected in a 96 well UV plate. The protein concentration in the filtrate, or flow-through, was calculated as (A280-A320)/1.3. The filter plate was then washed with 150 μL of 100 mM acetic acid, followed by 150 μL of 4M guanidine-HCl and 50 mM sodium acetate at pH 4.0. The protein concentration was measured in the new filtrate as described above. […] However, for peptides 750 and 751, the binding was strong in 25 mM MES at pH 6 but weak in 50 mM acetic acid with 0.1 M NaCl at pH 3.0, which can allow an efficient binding-elution process without the need for chaotrops or organic reagents. Flow-through and acetic acid elution samples from column 4 of the plate (loaded with MES pH 6) were analyzed on a gel (FIG. 14).

Assay [2] deals with T2, BMP-12 (UniProt Q7Z4P5 322-450, limits assumed).
T2 construct: also called BMP12/GDF7
T2 sequence (looked up): T1 sequence (Q7Z4P5 322-450)
The assay can be described thus: peptide resin, filter plate; load 2: 50 mM Acetic Acid, 0.1 M NaCl, pH 4.0. The method, then: (§1) The coupled resins, plus an unconjugated resin for use as a control, were suspended in 16% ethanol, 150 mM NaCl, and 20 mM Tris buffer at pH 7.5 at a 25% v/v ratio (e.g., 25% ethanol, 75% Tris buffer). A Tecan liquid-handling robot was employed to aliquot 200 μL of each slurry into one of eight rows of a 96 well polystyrene filter plate (0.45 μm hydrophilic filters, Whatman catalog number 770-1806). Spinning at 1200 g for 3 min removed the liquid phase, leaving 50 μL of wet resin on the filters. The resins were then equilibrated with the loading buffers listed in Table 6 (K is a coefficient characterizing the strength of protein binding to a particular resin in a particular buffer). […] The resins were loaded by transferring 150 μL from the load plate to the filter plate and then incubating 20 min on a shaking platform to facilitate binding. The filter plate was spun down and the filtrate collected in a 96 well UV plate. The protein concentration in the filtrate, or flow-through, was calculated as $(A280-A320)/1.3$. The filter plate was then washed with 150 μL of 100 mM acetic acid, followed by 150 μL of 4M guanidine-HCl and 50 mM sodium acetate at pH 4.0. The protein concentration was measured in the new filtrate as described above. […] Flow-through and acetic acid elution samples from column 4 of the plate (loaded with MES pH 6) were analyzed on a gel (FIG. 14).

The target of assay [3] is T2, BMP-12. The assay can be described thus: peptide resin, filter plate; load 6: 1M CHES pH 9.7. The protocol:
as §1

Assay [4] deals with T2, BMP-12. The assay can be described thus: peptide resin, filter plate; load 11: 50 mM Tris, 0.25 M NaCl, 30% MPD, pH 8.0. The protocol:
as §1

Assay [5] addresses T2, BMP-12. The assay can be described thus: peptide resin, filter plate; load 12: 50 mM Tris, 0.1 M NaCl, 20% MPD, pH 8.0. The protocol: as §1
Assay [6] addresses T2, BMP-12. The assay is described as follows: peptide resin, filter plate; load 4: 25 mM MES pH 6.0. The method, then:
as §1

Assay [7] has as its target T2, BMP-12. The assay is described as follows: peptide resin, filter plate; load 10: 50 mM Tris, 0.1 M NaCl, 40% MPD, pH 8.0. The method, then: as §1
Assay [8] deals with T2, BMP-12. The assay is described as follows: peptide resin, filter plate; load 3: 25 mM Na Acetate pH 5.0. The protocol: as §1
Assay [9] has as its target T2, BMP-12. The assay can be described thus: peptide resin, filter plate; load 5: 25 mM HEPES pH 7.0. The protocol: as §1
Assay [10] addresses T2, BMP-12. The assay can be described thus: peptide resin, filter plate; load 1: 50 mM Acetic Acid, 0.1 M NaCl, pH 2.9. The protocol: as §1
The mark [11] stands for this setting: loaded in condition 1: 50 mM Acetic Acid, 0.1 M NaCl, pH 2.9.
Setting [12] is: loaded in condition 2: 50 mM Acetic Acid, 0.1 M NaCl, pH 4.0.
The mark [13] stands for this setting: loaded in condition 3: 25 mM Na Acetate pH 5.0.
[14] abbreviates: loaded in condition 4: 25 mM MES pH 6.0.
[15] abbreviates: loaded in condition 5: 25 mM HEPES pH 7.0.
The mark [16] stands for this setting: 50 mM acetic acid with 0.1 M NaCl at pH 3.0.

No end group written: not given here.

Take “Ac-ELGWDDWIIAPLDYEAYHSEGLK [Peptide 749]”: the “Yield (BMP-12 recovered from resin)” value amounted to 86% in the assay with BMP-12 [1] (setting [11]); 88% in the assay with BMP-12 [1] (setting [12]); 90% with BMP-12 [1] (setting [13]); 88% in the assay with BMP-12 [1] (setting [14]); 102% with BMP-12 [1] (setting [15]). In the assay with BMP-12 [1] (loading buffers 1-5), the “binding of BMP12 by resin coupled to peptide” value (“binding of BMP12” for short) is reported as “high affinity”.

“Ac-LYV**SDVGWNDWIVK (Ac-LYVSDVGWNDWIVK; not fully specified (residue 3); printed as Ac-LYV**SDVGWNDWIVK) [Peptide 746]”: the “Yield (BMP-12 recovered from resin)” value in the assay with BMP-12 [1] (setting [11]) was 91%; in the assay with BMP-12 [1] (setting [12]), 88%; with BMP-12 [1] (setting [13]), 97%; with BMP-12 [1] (setting [14]) it was 87%; in the assay with BMP-12 [1] (setting [15]), 100%.

On to “Ac-LYVDFSDVGWNDWIVAPPGYHAFYSHGEK [Peptide 747]”, for which the “Yield (BMP-12 recovered from resin)” value with BMP-12 [1] (setting [11]) amounted to 81%; with BMP-12 [1] (setting [12]), 68%; with BMP-12 [1] (setting [13]) it was 90%; with BMP-12 [1] (setting [14]), 88%; with BMP-12 [1] (setting [15]), 90%. The “binding of BMP12” value in the assay with BMP-12 [1] (loading buffers 1-5) is “high affinity”.

Take “Ac-RDLGWQDWIIAPEGYAAFYSDGEK [Peptide 748]”: the “Yield (BMP-12 recovered from resin)” value was found to be 85% in the assay with BMP-12 [1] (setting [11]); 84% in the assay with BMP-12 [1] (setting [12]); 89% in the assay with BMP-12 [1] (setting [13]); 87% with BMP-12 [1] (setting [14]); 87% with BMP-12 [1] (setting [15]). The “binding of BMP12” value with BMP-12 [1] (loading buffers 1-5) is “high affinity”.

As for “Ac-SDVGWNDWIVAPPGYHAFYCHGEK [Peptide 750]”, the “binding of BMP12” value in the assay with BMP-12 [1] (25 mM MES at pH 6) was “strong”; in the assay with BMP-12 [1] (setting [16]) it was “weak”. Besides, the “Yield (BMP-12 recovered from resin)” value was determined as 100% in the assay with BMP-12 [1] (setting [11]); 93% in the assay with BMP-12 [1] (setting [12]); 96% in the assay with BMP-12 [1] (setting [13]); 85% with BMP-12 [1] (setting [14]); 109% in the assay with BMP-12 [1] (setting [15]).

In the case of “Ac-SDVGWNDWIVAPPGYHAFYSHGEK [Peptide 751]”, the “binding of BMP12” value with BMP-12 [1] (25 mM MES at pH 6) was “strong”; with BMP-12 [1] (setting [16]), “weak”. Moreover, the “Yield (BMP-12 recovered from resin)” value in the assay with BMP-12 [1] (setting [11]) is on record as 104%; in the assay with BMP-12 [1] (setting [12]), 97%; with BMP-12 [1] (setting [13]) it was 100%; with BMP-12 [1] (setting [14]), 92%; in the assay with BMP-12 [1] (setting [15]), 107%.

Consider Ac-VAPPGYHAFYSHGEK [Peptide 745], for which the “Yield (BMP-12 recovered from resin)” value with BMP-12 [1] (setting [11]) was determined as 100%; with BMP-12 [1] (setting [12]) it was 103%; with BMP-12 [1] (setting [13]), 105%; with BMP-12 [1] (setting [14]), 116%; in the assay with BMP-12 [1] (setting [15]) it was 103%.

For the molecule Ac-RDLGWQDWIIAPEGYAAFYSDGEK [BMP5 peptide 748], the “100 mM HAc elution K” value came to 6 with BMP-12 [2]; 2 with BMP-12 [6]; 2 in the assay with BMP-12 [8]; 2 in the assay with BMP-12 [9]; 6 in the assay with BMP-12 [10]. Further, the “100 mM HAc elution conc” value with BMP-12 [2] was determined as 0.151 mg/mL; with BMP-12 [6], 0.304 mg/mL; in the assay with BMP-12 [8], 0.264 mg/mL; with BMP-12 [9] it was 0.257 mg/mL; in the assay with BMP-12 [10] it was 0.123 mg/mL. For the same molecule, the “4M Gnd, 50 mM NaAc pH 4 Strip Conc” value was determined as 0.229 mg/ml in the assay with BMP-12 [2]; 0.091 mg/ml in the assay with BMP-12 [6]; 0.14 mg/ml with BMP-12 [8]; 0.105 mg/ml with BMP-12 [9]; 0.177 mg/ml in the assay with BMP-12 [10]. Besides, the “Flow-through K” value with BMP-12 [2] was 59; with BMP-12 [3], -1; with BMP-12 [4], 1; with BMP-12 [5] it was 1; with BMP-12 [6], 62; with BMP-12 [7], 1. In addition, the “Flow-through K” value with BMP-12 [8] came out at 57; in the assay with BMP-12 [9] it was 23; with BMP-12 [10], 11. Also, the Flow-through conc amounted to 0.023 mg/mL with BMP-12 [2]; 0.626 mg/mL with BMP-12 [3]; 0.375 mg/mL in the assay with BMP-12 [4]; 0.383 mg/mL in the assay with BMP-12 [5]; 0.022 mg/mL with BMP-12 [6]; 0.407 mg/mL with BMP-12 [7]. Besides, the Flow-through conc with BMP-12 [8] amounted to 0.024 mg/mL; with BMP-12 [9], 0.055 mg/mL; with BMP-12 [10], 0.106 mg/mL.

Turning to Ac-LYVDFSDVGWNDWIVAPPGYHAFYSHGEK [BMP2 Full peptide 747], the “100 mM HAc elution K” value with BMP-12 [2] was 6; with BMP-12 [6], 1; with BMP-12 [8], 2; with BMP-12 [9], 1; with BMP-12 [10], 6. For the same molecule, the “100 mM HAc elution conc” value in the assay with BMP-12 [2] turned out to be 0.147 mg/mL; with BMP-12 [6] it was 0.324 mg/mL; with BMP-12 [8], 0.274 mg/mL; with BMP-12 [9], 0.255 mg/mL; in the assay with BMP-12 [10], 0.123 mg/mL. For the same molecule, the “4M Gnd, 50 mM NaAc pH 4 Strip Conc” value with BMP-12 [2] was 0.15 mg/ml; in the assay with BMP-12 [6], 0.065 mg/ml; in the assay with BMP-12 [8], 0.111 mg/ml; in the assay with BMP-12 [9], 0.074 mg/ml; in the assay with BMP-12 [10], 0.15 mg/ml. The “Flow-through K” value was 47 with BMP-12 [2]; -1 with BMP-12 [3]; 0 in the assay with BMP-12 [4]; 0 with BMP-12 [5]; 38 with BMP-12 [6]; 0 in the assay with BMP-12 [7]. The “Flow-through K” value came out at 28 with BMP-12 [8], 11 with BMP-12 [9] and 10 in the assay with BMP-12 [10]. In addition, the Flow-through conc in the assay with BMP-12 [2] was 0.029 mg/mL; in the assay with BMP-12 [3] it was 0.659 mg/mL; with BMP-12 [4], 0.45 mg/mL; with BMP-12 [5] it was 0.438 mg/mL; in the assay with BMP-12 [6], 0.035 mg/mL; with BMP-12 [7], 0.482 mg/mL. The Flow-through conc with BMP-12 [8] was 0.046 mg/mL; with BMP-12 [9], 0.103 mg/mL; with BMP-12 [10], 0.114 mg/mL.
